2 molecules from article PMC8429977, “Phosphorylation of slit diaphragm proteins NEPHRIN and NEPH1 upon binding of HGF promotes podocyte repair” (The Journal of Biological Chemistry, 2021) can be followed below.

The assay addresses T1, purified human recombinant HGF (human, UniProt P14210 32-728).
T1 construct: hepatocyte growth factor, human, recombinant, purified; also called hepatocyte growth factor; recombinant human active HGF; source: bought: Sigma
Kind of assay: far-Western, overlay or dot blot; 300 ng peptide spotted on nitrocellulose, blocked with fat-free milk, incubated with 1 μg recombinant purified HGF in 5% BSA in PBS at 4 °C, detected with anti-HGF antibody. To be noted: both partners purified.

T1 sequence (P14210 32-728): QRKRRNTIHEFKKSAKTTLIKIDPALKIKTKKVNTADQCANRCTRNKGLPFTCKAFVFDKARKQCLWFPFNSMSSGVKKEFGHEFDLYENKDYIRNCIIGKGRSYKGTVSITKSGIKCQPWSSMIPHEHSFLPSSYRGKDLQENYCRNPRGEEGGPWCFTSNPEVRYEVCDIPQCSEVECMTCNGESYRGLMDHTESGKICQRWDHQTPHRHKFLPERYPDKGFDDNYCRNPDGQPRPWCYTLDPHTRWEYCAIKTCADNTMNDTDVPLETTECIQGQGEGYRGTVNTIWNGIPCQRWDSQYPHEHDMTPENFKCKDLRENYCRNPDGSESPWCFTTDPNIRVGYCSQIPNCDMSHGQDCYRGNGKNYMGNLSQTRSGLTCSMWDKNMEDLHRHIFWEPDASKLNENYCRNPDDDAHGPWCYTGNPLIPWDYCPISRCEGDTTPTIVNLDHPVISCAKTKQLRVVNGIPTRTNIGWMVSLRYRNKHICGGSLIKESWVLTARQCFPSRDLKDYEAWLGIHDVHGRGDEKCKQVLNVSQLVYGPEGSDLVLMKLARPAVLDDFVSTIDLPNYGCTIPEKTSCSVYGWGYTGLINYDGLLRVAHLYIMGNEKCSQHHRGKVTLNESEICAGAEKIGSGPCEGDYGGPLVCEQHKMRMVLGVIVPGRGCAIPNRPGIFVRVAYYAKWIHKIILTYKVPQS

B1: NEPH1 Peptide-1 (peptide)
peptide: QEGERVVFTCQATANPEIL
notes: also called NEPH-P1; NEPH1-P1; source: synthetic peptide (Fmoc solid phase, HPLC purified)
Turning to B1, the binding result is “binds”.

B2: NEPHRIN Peptide-1 (peptide)
peptide: PDITILLSGQTISDISANVNEGSQQKL
notes: also called NEPHRIN-P1; NEPHRIN P1; source: synthetic peptide (Fmoc solid phase, HPLC purified)
Consider B2, for which the binding result is given as “binds”.
